In publication PMC12075686, “Structural basis of phosphorylation-independent nuclear import of CIRBP by TNPO3” (Nature Communications, 2025):

T1: Transportin 3 (TNPO3), full-length wild type (human, UniProt Q9Y5L0 1-923)
T1 chain: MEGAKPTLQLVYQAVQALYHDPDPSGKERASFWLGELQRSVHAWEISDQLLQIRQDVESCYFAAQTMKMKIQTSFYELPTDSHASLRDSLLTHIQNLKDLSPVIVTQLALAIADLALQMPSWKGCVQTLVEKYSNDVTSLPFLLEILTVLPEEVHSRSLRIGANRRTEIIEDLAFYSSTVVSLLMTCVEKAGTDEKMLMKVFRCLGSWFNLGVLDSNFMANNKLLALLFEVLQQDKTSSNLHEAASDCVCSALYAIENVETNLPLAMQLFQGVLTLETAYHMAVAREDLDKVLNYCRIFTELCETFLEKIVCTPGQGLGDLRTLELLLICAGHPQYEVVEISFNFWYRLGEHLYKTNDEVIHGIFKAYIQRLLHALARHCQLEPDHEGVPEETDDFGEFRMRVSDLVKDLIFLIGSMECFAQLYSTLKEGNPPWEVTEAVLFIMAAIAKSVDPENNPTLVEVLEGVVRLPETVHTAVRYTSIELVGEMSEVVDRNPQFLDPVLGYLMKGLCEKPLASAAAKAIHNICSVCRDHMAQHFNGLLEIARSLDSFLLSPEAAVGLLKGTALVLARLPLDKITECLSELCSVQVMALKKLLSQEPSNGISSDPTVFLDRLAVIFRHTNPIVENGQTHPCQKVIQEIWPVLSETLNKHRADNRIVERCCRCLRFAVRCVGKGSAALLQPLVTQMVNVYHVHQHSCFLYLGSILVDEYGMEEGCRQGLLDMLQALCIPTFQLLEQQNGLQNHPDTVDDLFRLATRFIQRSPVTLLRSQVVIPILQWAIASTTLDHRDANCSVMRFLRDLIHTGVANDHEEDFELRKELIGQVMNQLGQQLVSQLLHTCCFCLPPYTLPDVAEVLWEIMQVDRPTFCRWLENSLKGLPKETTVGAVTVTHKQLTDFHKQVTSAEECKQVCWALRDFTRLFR

T2: Transportin 3 (TNPO3), full-length wild type (human, UniProt Q9Y5L0 1-923)
T2 construct: Transportin 3 (TNPO3), human, full-length wild type; For the NMR experiments made 15N-labelled with 13C-methyl labelling of isoleucine and methionine side chains ([IM-methyl 13C]); Vector pETM11-His6-protein A with a TEV site downstream of the protein A tag; also called TNPO3 WT; TNPO3 FL WT; source: E. coli BL21-(DE3) Star, purified (Ni-NTA, TEV cleavage, second Ni-NTA, SEC Superdex 200); not …
T2 sequence (looked up): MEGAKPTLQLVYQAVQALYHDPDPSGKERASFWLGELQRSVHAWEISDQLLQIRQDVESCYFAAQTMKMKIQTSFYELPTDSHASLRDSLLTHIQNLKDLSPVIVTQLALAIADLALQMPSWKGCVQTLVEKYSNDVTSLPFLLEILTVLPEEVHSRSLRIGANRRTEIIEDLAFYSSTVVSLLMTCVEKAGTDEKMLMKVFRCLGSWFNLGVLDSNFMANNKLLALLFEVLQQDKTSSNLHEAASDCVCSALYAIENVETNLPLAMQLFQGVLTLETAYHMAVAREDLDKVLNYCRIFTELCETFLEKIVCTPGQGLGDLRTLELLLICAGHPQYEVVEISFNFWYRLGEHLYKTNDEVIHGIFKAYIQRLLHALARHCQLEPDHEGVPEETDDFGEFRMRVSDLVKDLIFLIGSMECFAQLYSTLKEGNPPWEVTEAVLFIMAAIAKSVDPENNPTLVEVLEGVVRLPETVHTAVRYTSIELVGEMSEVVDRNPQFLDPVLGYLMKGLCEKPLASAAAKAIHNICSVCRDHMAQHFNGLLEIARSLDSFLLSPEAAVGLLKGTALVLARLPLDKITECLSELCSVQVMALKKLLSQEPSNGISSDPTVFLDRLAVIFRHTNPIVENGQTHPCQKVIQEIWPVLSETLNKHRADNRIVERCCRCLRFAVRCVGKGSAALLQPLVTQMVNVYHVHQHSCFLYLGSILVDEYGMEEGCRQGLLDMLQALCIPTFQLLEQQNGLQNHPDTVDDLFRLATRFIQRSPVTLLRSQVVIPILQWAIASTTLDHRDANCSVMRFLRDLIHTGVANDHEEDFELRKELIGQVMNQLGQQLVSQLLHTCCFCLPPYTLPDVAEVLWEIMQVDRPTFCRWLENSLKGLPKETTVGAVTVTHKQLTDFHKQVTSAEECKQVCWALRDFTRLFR

T3: Transportin 3 (TNPO3) C511A mutant (human, UniProt Q9Y5L0 1-923, C511A)
T3 construct: Transportin 3 (TNPO3), human, C511A mutant that increases stability; Two chains in the asymmetric unit of 8CMK; source: E. coli BL21-(DE3) Star, purified (Ni-NTA, TEV cleavage, second Ni-NTA, SEC Superdex 200)
T3 sequence: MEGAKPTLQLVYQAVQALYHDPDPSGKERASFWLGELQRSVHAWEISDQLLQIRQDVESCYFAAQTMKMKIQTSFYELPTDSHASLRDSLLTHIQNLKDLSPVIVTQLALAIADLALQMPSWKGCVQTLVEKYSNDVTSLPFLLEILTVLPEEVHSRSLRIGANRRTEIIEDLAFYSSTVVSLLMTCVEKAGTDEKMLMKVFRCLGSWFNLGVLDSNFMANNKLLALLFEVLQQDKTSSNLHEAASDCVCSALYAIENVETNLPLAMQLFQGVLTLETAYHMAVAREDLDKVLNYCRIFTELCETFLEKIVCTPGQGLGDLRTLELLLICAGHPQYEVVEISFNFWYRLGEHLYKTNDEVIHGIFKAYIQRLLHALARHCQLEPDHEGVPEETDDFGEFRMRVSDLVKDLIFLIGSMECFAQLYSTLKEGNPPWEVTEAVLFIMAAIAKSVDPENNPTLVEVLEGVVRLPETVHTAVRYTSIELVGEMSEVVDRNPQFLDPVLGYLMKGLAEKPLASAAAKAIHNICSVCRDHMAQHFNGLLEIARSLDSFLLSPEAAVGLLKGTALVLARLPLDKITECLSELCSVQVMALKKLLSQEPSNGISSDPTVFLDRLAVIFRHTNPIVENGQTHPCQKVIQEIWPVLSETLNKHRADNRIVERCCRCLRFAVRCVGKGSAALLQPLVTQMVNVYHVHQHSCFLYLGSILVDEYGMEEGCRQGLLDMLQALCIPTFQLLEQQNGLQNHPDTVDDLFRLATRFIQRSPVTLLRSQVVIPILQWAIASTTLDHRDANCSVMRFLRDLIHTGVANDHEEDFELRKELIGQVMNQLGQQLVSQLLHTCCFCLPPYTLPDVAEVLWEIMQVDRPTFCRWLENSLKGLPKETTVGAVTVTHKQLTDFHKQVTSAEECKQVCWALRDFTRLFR

B1: RSY region of cold-inducible RNA-binding protein (CIRBP), residues 138-172 (domain or fragment, human, UniProt Q14011 138-172, looked up)
chain: SRDYYSSRSQSGGYSDRSSGGSYRDSYDSYATHNE
notes: Only residues 158-171 were modelled in PDB 8CMK; also called CIRBP^RSY; RSY-NLS; source: E. coli BL21-(DE3) Star, purified (denaturing lysis, Ni-NTA, TEV cleavage, second Ni-NTA, SEC Superdex 30); not shown: His6, N-terminal, cleaved; protein A, N-terminal, cleaved

Legend:
[1] = target: TNPO3; settings: SAXS, monomer/dimer equilibrium; read-out: dissociation constant of TNPO3 dimerization in solution; cited from earlier work
Excerpt: We next aimed to gain insight into the structural basis for TNPO3 recognition of RSY-NLS and obtained crystals of TNPO3 C511A bound to CIRBP^RSY that diffracted X-rays to 2.94 Å resolution. This TNPO3 mutant was used for the determination of the 3D X-ray structure of the TNPO3-SRSF1 complex and increases TNPO3 stability. […] TNPO3 forms a dimer in the asymmetric unit of the crystal structure, as previously observed ... || page 9: Figure 2: Is TNPO3 a monomer in solution? In order for the reader to understand where are the additional contact points described in Sup Fig 2, a global view of the different contact points would be helpful. […] Out of the additional contact points in the crystal structure, the intermolecular salt bridge of E304 with K877 is the only contact which we could observe in both directions (chain A – chain B and vice versa). We in ...

[2] = target: T1, Transportin 3 (TNPO3), full-length wild …; experiment: ITC
[3] = target: T2, Transportin 3 (TNPO3), full-length wild …; experiment: ITC; 100 µM ligand in the syringe injected (28 x 10 µL) into 10 µM TNPO3 (WT or C511A) in the cell; 25 °C; 50 mM Tris-HCl pH 7.5, 150 mM NaCl, 2 mM TCEP, 0.04% NaN3; settings: both partners purified
[4] = target: T3, Transportin 3 (TNPO3) C511A mutant; experiment: as above; settings: both partners purified
[5] = target: T1, Transportin 3 (TNPO3), full-length wild …; experiment: ITC; rep2

| Molecule | Kd [1] | Kd [2] | Kd [3] | Kd [4] | Kd [5] |
| --- | --- | --- | --- | --- | --- |
| TNPO3: Transportin 3, nuclear import receptor; here its own monomer/dimer equilibrium | 8300 ± 1000 nM |  |  |  |  |
| B1 |  | 870 nM | 610 ± 100 nM | 970 ± 130 nM | 870 nM |
